Assay results as given in patent publication US9789196B2, “Site-specific insulin-polymer conjugates” (AntriaBio, Inc., priority 2003, dated 2017).

Assays:
[1] = tested on: liver enzymes; settings: cited from earlier work
[2] = tested on: rabbits; settings: calculated on a molar basis; cited from earlier work
[3] = In vitro release of PEG-insulin from PLGA microspheres; format: physicochemical; settings: PLGA 45:55 microspheres, nominal core load 25 wt %
Experimental: A sample of 15 mg […] PEG-insulin microspheres (14.1% drug content, PLGA 45:55; 0.15 dl/g IV, acid end groups) was suspended in 1.5 ml phosphate buffered saline (pH 7.4, 0.02% sodium azide and 0.02% Tween20) and incubated at 37° C. The supernatant was withdrawn at intervals and analyzed by RP HPLC for released PEG-insulin. The buffer was replaced with fresh PBS and the incubation continued. The data were analyzed for cumulative release as a function of incubation time (FIG. 4). Less than 1.0% of the PEG-insulin is released in the first day and over 95% is released within 18 days. The low “burst” release, high total release and duration over approximately a two-week period are highly desired features of a sustained release insulin formulation.

[4] = Characterization of PEG-insulin PLGA microspheres (coreload, encapsulation efficiency by RP-HPLC); format: physicochemical; settings: PLGA 45:55 L:G, 0.15 dL/g, acid end group microspheres, nominal core load 25 wt %
Experimental: PEG-insulin F5000 (50 mg) was dissolved in 1 ml methylene chloride. The solution was added to a volume of 1 ml methylene chloride containing 150 mg PLGA 45:55 (lac:gly), 0.15 dl/g IV with acid end groups. The methylene chloride solution was added to 5 ml water containing 1% poly(vinyl alcohol) in a 15 ml centrifuge tube and vortex-mixed to form an emulsion. The emulsion was added to 100 ml of water containing 0.3% poly(vinyl alcohol) and stirred for 3 hrs to evaporate the methylene chloride. The hardened microspheres were collected by vacuum filtration on Whatman #1 filter paper and dried.
The PEG-insulin microspheres' surface morphology and particle size distribution were examined by scanning electron microscope and laser-light scattering particle size analysis, respectively. Analytical reverse phase HPLC was used to quantify the amount of PEG-insulin conjugate encapsulated within the polymer microspheres. Prior to HPLC analysis, a measured quantity of microspheres was dissolved in a volume of acetonitrile, and an equivalent volume of 0.1% TFA in water was added to precipitate the polymer and extract the conjugate into aqueous solution. K2000, K5000, K10000, K20000 and F5000-A were also encapsulated using this method. The results of these tests are collected in Table 1, which lists the PEG-insulin content in % (w/w) of the total microsphere and the encapsulation efficiency, defined as weight of PEG-insulin encapsulated/weight of PEG-insulin added initially. Relatively high drug content up to 28.3% and encapsulation efficiency, up to 100%, were achieved, making the product clinically useful due to reduced total dose required, and commercially attractive due to low losses of starting material. In addition, microspheres were prepared using polymers of varying lactide:glycolide ratios (50:[…]), molecular weights (6.5-24 kDa), intrinsic viscosities (0.09-0.27 dL/g), or terminal ester groups (methyl and lauryl), with a wide range of drug loadings (5-35 wt %).
Microspheres were prepared with PLGA (45:55 L:G, 0.15 dL/g, acid end group) to a nominal core load of 25 wt %.

[5] = tested on: fasted Sprague-Dawley rats; assay: Pharmacodynamics of PEG-insulin conjugates after intravenous injection to normal rats (blood glucose); format: in vivo, rat; settings: 0.3 IU/kg equivalent; for suppression of glucose levels relative to normal human insulin: tail vein injection, fasted Sprague-Dawley rats, 6 hrs, vs Humulin R
Experimental: The effects of PEGylation on insulin pharmacodynamics were investigated. These studies were conducted to evaluate the in vivo biological activity (ability to lower serum glucose) of conjugate formulations containing PEG-insulins differing in site of substitution (positional isomers) or PEG molecular weight, relative to a commercially available insulin formulation (Humulin R, Lilly). Blood glucose levels were measured for fasted Sprague-Dawley rats after intravenous administration of F5000, K2000, K5000, K10000, or HumulinR®. The equivalent of 0.3 IU/kg (based on protein concentration and corrected for the weight of the PEG as appropriate; assumes 25 IU/mg protein) were dissolved in normal saline and administered by tail vein injection; N=6 per group. Blood was drawn before test article injection and at intervals over a period of 6 hrs post injection. Serum was isolated by standard procedure and glucose levels were measured using an Accucheck Advantage (Boeringer Ingelheim) glucose meter.

mPEG(1500)-B1-insulin: prior-art site-specific PEG 1500 conjugate of insulin at residue PheB1 (Obermeier; Geiger; Ehrat)
stability to liver enzymes compared with native insulin [1]: far more stable (to liver enzymes)
insulin effect on reduction of blood sugar levels [2]: 100%

K20000: branched mPEG2-SPA 20,000 Da attached to the amino group of LysB29 of insulin [Conjugate K20000]
In vitro release, Initial burst [3]: 80%
Coreload [4]: 14 wt %
Encapsulation Efficiency [4]: 56 wt %

K10000: branched mPEG2-SPA 10,000 Da attached to the amino group of LysB29 of insulin [Conjugate K10000]
In vitro release, Initial burst [3]: 80%
duration of action ([5]; intravenous, normal rats): exceed 6 hours
suppression of glucose levels relative to normal human insulin [5]: did not reduce glucose levels to the same extent as the other test articles
Coreload [4]: 19 wt %
Encapsulation Efficiency [4]: 76 wt %

mPEG(5000)-PheB1-insulin [Conjugate F5000]
In vitro release, Initial burst [3]: 2%
suppression of glucose levels relative to normal human insulin [5]: as effective in suppressing the glucose levels in normal rats as equivalent doses of normal human insulin
Coreload [4]: 24 wt %
Encapsulation Efficiency [4]: 96 wt %

K5000: PEG-5000 linked to insulin B chain Lys29 [Conjugate K5000]
In vitro release, Initial burst [3]: 2%
suppression of glucose levels relative to normal human insulin [5]: as effective in suppressing the glucose levels in normal rats as equivalent doses of normal human insulin
Coreload [4]: 24 wt %
Encapsulation Efficiency [4]: 96 wt %

K2000: linear mPEG-SPA 2000 Da attached to the amino group of LysB29 of insulin [Conjugate K2000]
In vitro release, Initial burst [3]: 6%
suppression of glucose levels relative to normal human insulin [5]: as effective in suppressing the glucose levels in normal rats as equivalent doses of normal human insulin
Coreload [4]: 24 wt %
Encapsulation Efficiency [4]: 96 wt %

F5000-A: probably F5000 made with mPEG(5000)-aldehyde, secondary amine bond at PheB1 (Example 5) [Conjugate F5000-A]
In vitro release, Initial burst [3]: 20%
In vitro release, Total [3]: 97%
Coreload [4]: 21 wt %
Encapsulation Efficiency [4]: 85 wt %
